Measurements: patent US20250154548A1, “CONTROL OF ENZYMATIC NUCLEIC ACID SYNTHESIS VIA ELECTROCHEMICAL MEANS” (The Charles Stark Draper Laboratory, Inc., priority 2023, published 2025)

Test: Proteinase K activity as a function of pH and after pH neutralization
Assay type: biochemical
Conditions: for recovery of proteinase K activity after neutralization: after exposure to highly acidic (pH 3.5) or basic (pH 12) conditions, neutralized to pH 7 to 7.5
Source text: FIGS. 1A-1C provide information on activating proteinase K at different pH conditions.
Another method of deblocking after nucleotide addition using a conjugated enzyme is to digest the protein around the extended DNA. Proteinase K (ProK) is a hydrolase that digests proteins at aliphatic and aromatic residues making it a broad-spectrum protease^1 that could be used to fully digest TdT releasing the extended DNA for the next round of addition. This enzymatic cleavage step could potentially be spatially controlled via an electrochemically driven pH change, as depicted in FIG. 1A. […] A voltage would then be applied to electrodes near the DNA site to be cleaved for the next addition. This would cause a shift in the pH near this active electrode that would re-activate ProK to digest nearby TdT molecules, deblocking the DNA for subsequent nucleotide addition. ProK has some natural pH sensitivity^1-2 and could be further engineered to shift the activity profile into a desirable pH range.

B1: Proteinase K: hydrolase that digests proteins at aliphatic and aromatic residues, a broad-spectrum protease (protein, UniProt P06873 106-384, looked up)
Proteinase K: AAQTNAPWGLARISSTSPGTSTYYYDESAGQGSCVYVIDTGIEASHPEFEGRAQMVKTYYYSSRDGNGHGTHCAGTVGSRTYGVAKKTQLFGVKVLDDNGSGQYSTIIAGMDFVASDKNNRNCPKGVVASLSLGGGYSSSVNSAAARLQSSGVMVAVAAGNNNADARNYSPASEPSVCTVGASDRYDRRSSFSNYGSVLDIFGPGTSILSTWIGGSTRSISGTSMATPHVAGLAAYLMTLGKTTAASACRYIADTANKGDLSNIPFGTVNLLAYNNYQA
Question: Which results are given for B1?
Answer: recovery of proteinase K activity after neutralization: recovers; recovery of proteinase K activity after neutralization (listed as ProK): activity can be recovered; proteinase K activity (at pH 12.5): negligible activity; proteinase K activity (relative to activity at pH 7.3) (below pH 5 and above pH 10): complete dropoff in activity
